A short description of the data set: soluble on expression in E. coli; label from the status in PepcDB or PDB records.
For “MNSEALDNFEAPRFRPPDEPRMMKNYTTQFSPLDTPPPMNGTPPIAGMHHYLTDPDPSREMMDLPANISNFGRDDASLVLPANLMGGADTSLPNIDRYKMDLPSEIYPNDPMPRGISTPPMNMKFNLGENIGRDVDRGVMNGFGAERQYQDPMIEIEQNLGNIRFESGNEKIKATITKFDEDYYGNEICAQCQAEDAYMDRMRRQAEEERRKYEETMKRAKMYEDLTREKEETFKREEAERNKALRDHVDRVNAEMIEMKKRRPKSPVLENYIFRHESPRSRDVEVRTRKDAYRAELDRQVEEKRLRRIAEFEKNEAIDATSNARAALEFANAREAERKSIEHAKEMARKQLEFQMEMSRVGAPSDKNWLWWAERPDEHGWRDARLKGLKHTNQVERNQTFKQSIGMLEEFKARQAHDDMVMRDNRRAKYDKLRDQLHENSKMLYPLTKTESRPIIVQPDPRVEAAWREAHEKYDRKFAVLQDNAMKSISGAALDGVAHATTSCRRCARCARPMERKTTLFVNRGETILPHQANWHS”, the “soluble on expression in E. coli” value was “not soluble”.

As for “MNSGPKVSVIMGIYNCERTLAESIESILSQSYKNWELILCDDASTDGTLRIAKQYAAHYSDRIKLIQNKTNKRLAASLNHCLSHATGDYIERQDGDDLSFPRRLEKQVAFLEKHRHYQVVGTGMLVFDEFGVRGARILPSVPEPGIMAKGTPFCHGTIMMRASAYRTLKGYRSVRRTRRMEDIDLWLRFFEEGFRGYNLQEALYKVREDSDAFKRRSFTYSIDNAILVYQACRRLKLPLSDYIYIAKPLIRAFMPAAVMNRYHKKRVMNQKEGLVKHELEHHHHHH”, the “soluble on expression in E. coli” value is “not soluble”.

For “MNSKVGCLMAILLLAGCAKQTPPPQANNGWLKKTPQGNSLNVAKSSAGSTTVAYSDVIKQAASHYGVDETLIKAIIQVESGYNPDVVSRSNAVGLMQIKASTAGRDAYRMKGRNGQPSSRELKDPVKNIDIGAAYINILQNQQLAGINDPQTLRYATIVSYANGAGAMLRTFSSDKRLAVNKINSLSPNEFYQHIQKKHPAAQAPRYLWKVDTAYRAMSE”, the “soluble on expression in E. coli” value is reported as “not soluble”.

In the case of “MNSLIPPPTSEQQMNMFRLRDKMSLLNAEFLKVINGYFTEKNHYDFSGTMKSYMDHVAQLKQIYKVDDDVAADMTVPRRTENSSESSGETVAPRKIAKAVRKNGTPKNPLNSTVFAASSPAATVASVPKFGDISVITKETPAPLAKTAEPLVAPAAPATARKRAIRGGGPLGGAESVVFKSGEDGQAATSSVKIPATTIKFPEPTKDFWTKKSDAPAAPSNSGSLFAFLGKELFSIKKNPPIYQNFSGDKPKETPKFSGFSFGKKPAEPSEEPKAADSTPKLTFGSPKEADLPKPASSLFGASPSKPLVFGGSSADSTTSAPKPFSALSTAASLFGSSSASTTTTATQPLSFGSSSTGGSSLFSGFAGLAQKAMENQNQAKPEGSGEDDEGEYVPPKVETVENQEPDAVLSSKVSVFKFTGKEYTKLGVGMLHIKDNDGKFSVLIRAATATGTVWLNSLCNKAMKATVVDAKGDRIRLTCPSSSTEMATMMIRFGTADGAKKFTDKILEVAV”, the “soluble on expression in E. coli” value is on record as “not soluble”.

Consider “MNSNGPLMEHGKRRVAYYYDSNIGNYYYGQGHVMKPHRIRMTHHLVLNYGLYRNLEIFRPFPASFEDMTRFHSDEYMTFLKSANPDNLKSFNKQMLKFNVGEDCPLFDGLYEFCQLSSGGSLAAATKLNKQKVDIAINWMGGLHHAKKSEASGFCYTNDIVLGILELLKYHKRVLYVDIDVHHGDGVEEAFYTTDRVMTVSFHKYGDFFPGTGDLKDIGAGKGKLYSVNVPLRDGITDVSYQSIFKPIMTKVMERFDPCAVVLQCGADSLNGDRLGPFNLTLKGHGECARFFRSYNVPLMMVGGGGYTPRNVARCWTYETSIAVDKEVPNELPYNDYFEYFGPNYRLHIESSNAANENSSDMLAKLQTDVIANLEQLTFVPSVQMRPIPEDALSALNDDSLIADQANPDKRLPPQITDGMIQDDGDFYDGEREGDDRRNESDAKRAAQFESEGGEKRQKTE”, for which the “soluble on expression in E. coli” value is “not soluble”.

Regarding “MNSQNSQKSSSFDDFAGQVVIYTEIGNSKCAKGRDLLHREGIPYTDVSLDSFPQHSQEIFDRTGTDVLPQIFFNNIYIGHETDLERVIGETNKWESLVEHVRREKCTNGGPIVPHPMNAIGFEEYETENNNKCCDEVLWVPDEYSKLVRDMKNAQLIKNNRVKLKVYRNSFKGEELVEWLMRQKGIKRSEALEIGQELIDRHVGQQTSKESGMTFSPDRYYQLVEDDENKPLNAGEDDGDKKQSFPVAECNEKFSKLLKPIFNDILTDDNQSIIYGGLSTNDNFTRYLQFSRELNHVTFEGSTSDDRLTFFINVYNMMLIHITLKHGPPIGIWQRRKLVNGTYYLIGGHRYALHSIINGILRGNKKGPGMLWKAFGKQDARLPISLAVCDPLIYFSLCSGSKTTPPLRVYHSKSIHQEMRENARQTLLRGDKFLRVDMKKNVIHLGKTFKWFSDDFGGSTEKILQWILDVLDTNESDKKHNLQKLFFTGEYSIEYIPYDWSTNGRMDEKEREDIDGGGGGGGDVRRTKTIE”, the “soluble on expression in E. coli” value is reported as “not soluble”.

As for “MNSSRPYLVRALYEWIVDNDCTPHILVNAEFAGVKVPPGYASDGQIVLNVSPSAVRHLHMDNEAVSFEGRFGGVAQSLYIPALAVMAIYARENGQGMVFDLEQPGPVDDEPGDDDGGPSDEPPRPSGRPSLKVVK”, the “soluble on expression in E. coli” value was “not soluble”.

On to “MNSTYQLFIDVTSRKCILAIYKNFKIHTSIIVDTNNNLTDIIVEHLNNLLKITNLQYQDLEAIYLNTGPGSFTGIRVGAIVAKTICTIFNKIKLFINDSLNIIANGKNDVFVYLDAKGNKSYVITITNNIQNEYKIITNKELQNELKNTSLTIIDANQIDYHDLIYNLKFDNFKLTNILDFRLNYVKKPLNLEHHHHHH”, for which the “soluble on expression in E. coli” value is “not soluble”.

As to “MNTETSTQSAPSDTYDTSIYYNSSPRVTANDITTLTSFAAPAPQVLDYANTQYDIYRNQPAYYLPSYAPTAPTTFYSDFANFNVTRSQDFASVPAVANSSDVKPIIIKQEKSTPNATELIIQSRVDSQHEDTTTSTAGGAGVGGPRRTKFVLSVDRRKAATMRERRRLRKVNEAFEVVKQRTCPNPNQRLPKVEILRSAIDYINNLERMLQQAGKMTKIMEQNQHLQMTQQINGAPPHDYVTSSHFASSSYNPENMFDDDDLTDSDDDRDHHKLGNAVDLRRRNSLDRLSRIVASIPNEEAMTDEQLLQPANDVIDGEKKLEML”, the “soluble on expression in E. coli” value was “not soluble”.

For “MNTLEKIQKNLENFSKSERKVAEVIMASPQTAIHSSIATLAKMADVSEPTVNRFCRRLDTKGFPDFKLHLAQSLANGTPYVNRNVEEDDGPDAYTHKIFESTMACLDVAKNSLDPMQVNRAVDLLTQAKRISFFGLGASSSVARDAQNKFIRFNIPITCFEDIVMQRMSCINCSDNDVIVLISHTGRTKSQVEIANLARENGATVIAITAKDSPLEKASSLAITLDIPEDTDVYMPMASRVVQMTVIDVLATGFTLRRGTGFRENLKRVKDALKDSRYDKLSQY”, the “soluble on expression in E. coli” value was “not soluble”.

Turning to “MNTLSDSASPLYEKVKDFVLGNIGSGKWARNSRLPSENELVSALGVSRMTVHRALRELTSEGHLRRIQGVGTFVAPPRPRSTLIEISNIITEIKTRGSRHRAEVVVLERIARPEPELLLAFEFETVKPVDHSVVIHFENDLPVQLEERYVNPNLVSGYIDQDFAAVATYDYLQNATPLTEVEHLISALPANAEQARLLNVRPGDCCLILHRKTWTGPVVATVNTFTYVGSRYSLGSRYLHGGK”, the “soluble on expression in E. coli” value is “not soluble”.

Take “MNVACPALLIAGPASGQGKTTLTAALARHHVRQGRRVRVFKVGPDFLDPMLLQAASGQPVYQLDLWLVGEDQCRSLLFEAARSADLILIEGVMGLFDGTPSAADLAQTFGVPVLAVIDASGMAETFGAVAHGLATHRPGLPFAGVVANRVASPGHADRLRASLPGAIPFRGAFFRQPDAGFPDRHLGLVQAPELGDLDRRLDTLADAVAGTGLADLPDSVPFAPESAAVPPRLLEGVRIGIARDAAFSFLYPANLDLLRAMGATPVFFSPLGDRSLPEVDSVYLPGGYPELHLDTLAGNGGMKESLREHVAAGKPLLAECGGLLYLLEELADQNGRTSAMCGILPGRAKMQTRLAGLGLQSAAFRSGTLRAHTFHYSRLETPLSPLLMAERRRGGSAGEAVYRQGRLTASYLHWYLPSCPEAAAELLRPLEHHHHHH”: the “soluble on expression in E. coli” value is on record as “soluble”.

On to “MNVHQRYAMGDSLAAKHGLWSEEQIDAAARVRRIAEEQGLETIRFSFPDQHGILRGKTLVASEALNCLDNGATITTTMLAKDTSHKTVFPVFQAGGGFGMSEMQGGADVVMLPDPTTFRVLPWAPTTGWVLCDLYFADGRPVQFATRNIYRAALQKLAARGYDYKAGLEVEFHVFKVVDSKMRPEHAGQPGEPPEVSLLSHGYQYLTEQRYDQMEPVLELIRRDVVALGLPLRSIEVEFGPSQCEFTFQPTVGLLPADLMVLFRAAVKQICRRHGYHATFMCRPRIPNVVSSGWHLHQSVVARDGGRNAFMSDSDVLSDFGRHYLAGLMTHARAATVFTTPTINGYKRYRSYSLAPDRAIWGRDNRGVMLRVLGGAGDKATRIENRVGEPAANPYLYMASQILSGLDGVDRALDPGPSADTPYETKADLLPKSLREAIFALRDDPFFRTALGDEFVDYYTFIKNAEIERFQAEVTEWEQREYFEMF”, for which the “soluble on expression in E. coli” value is “soluble”.

In the case of “MNVSFSTSSLSVSNSRTRLISFRETEHGDQKSSEEWKTSTKLEALGSMEGELAHLLSTCKPETLNHNKTELSGFRNLFARFLRAKPTVDWSKIEPLPEGAIRPYKSLGHVVDKELIASQLRKLVVVKLNGGLGTSMGCKGPKSVISVRNDLTFLDLTMQQIQTLNKTYGVDVPLVLMNSFNTNEDTQKVLKKYANVKVSVHTFSQSQYPRINRETLLPIVKSLEADDNECWYPPGHGNFYEAFHNSGLLDKFLADGKEYCFLSNIDNMGATVDLSILNFVLNPSPDQTAPEFLMEVTDKTRADVKGGTLIQYEGRLMLLEIAQVPKDYVDEFKSISKFRIFNTNNLWAKLDAMRKIVVENKLEMEVIVNPKHLDRGLDVIQLETAAGAAIKSFSGAVGVNVPRSRFLPVKKTSDLLLLMSNLYDIDNGSLTLSHQRSFPTTPLVKLGSSFDKVKDYLGRFNGIPDLLELDHLTVSGDVWFGKDVSLKGTVIIIANHGDRIDIPPGSILENKIVSGNLRILEH”, the “soluble on expression in E. coli” value is reported as “not soluble”.

Turning to “MNVSVERYQRRKYVSQENSPMLYYVRQKSGTVRVMDVEKLADAIEANSSLTAGDVKHAIEAFVEQLRLSLTQGDKVKIDGLGTFHITLCSEGTEKEKDCTVRSIRKVNVRFVADKALHLVNASHTSTRSENNVEFVLASKGDTEGGNAGGGNTGGGGNSGGGGNSGGDEEAPDPTV”, the “soluble on expression in E. coli” value is recorded as “not soluble”.

Consider “MNVTEISAGQFQEMVQAGATRLHTNAEYVNSLNVFPVPDGDTGTNMNLSMTSGAKAVADSRSEKVGELAGALSKGLLMGARGNSGVILSQLFRGFSKQIPEVTTLNAKDLAAAFTHGVETAYKAVMKPVEGTILTVSREAARSGERKAKETDDCIEVMTAVVAGAKRALAKTPDLLPVLKEVGVVDSGGQGLLFIYEGFLEALSGEFLPTETYEPSPAEMDEMVNAEHHRGVSGHVATEDIKFGYCTEIMVRIGEGPTVDSAFDYETFRNYLNELGDSLLVVNDDEIIKVHVHTEHPGEVMNYGQKFGSLVKIKVDNMRLQHETLVERDAQQEALTEKVRVPFAVIAIAAGEGVQELFRSLGASYIISGGQTMNPSTEDILKAVKEVNAEQVIILPNNKNIFMAADQAAEVADVPVAVVPSKTISQGMTAMLAFNDQQSLEENKASMTEMLDSVVSGQVTTAVRDTTIDDVEIKKDDFLGMIDGKIVVSEADRFNASLDTLNRMIDEDTEIVTIIVGEDGSVEEAEKLIAILVSENDELETELHEGGQPVYPYLFSAE”, for which the “soluble on expression in E. coli” value is recorded as “not soluble”.

(Values after the DeepSol protein solubility set.)
